Results published in PMC8699518 (Biomolecules, 2021).

What was measured:
E. coli-HuIFN-γ = target: T1, E. coli-HuIFN-γ (Homo sapiens, UniProt P01579); assay: ELISA; indirect ELISA of the hybridoma panel; antigens adsorbed overnight at 4 °C in PBS pH 7.2 at 2 μg/mL, 50 μL/well; anti-mouse immunoglobulin-HRP, OD450
T1 construct: human interferon gamma expressed in E. coli; source: expressed in E. coli

[1] = target: T2, recombinant glycosylated IFN-β (Pharmapark, Moscow, Russia) (Homo sapiens, UniProt P01574, glycosylated); assay: ELISA; Kd by the method of Friguet with the Klotz equation; murine antibody and IFN-β in solution at equilibrium, free antibody measured by ELISA
T2 construct: human interferon beta, glycosylated form (IFN-β-1a); also called IFN-β-1a; IFNβ-1a; source: bought: Pharmapark
T2 sequence (P01574 22-187): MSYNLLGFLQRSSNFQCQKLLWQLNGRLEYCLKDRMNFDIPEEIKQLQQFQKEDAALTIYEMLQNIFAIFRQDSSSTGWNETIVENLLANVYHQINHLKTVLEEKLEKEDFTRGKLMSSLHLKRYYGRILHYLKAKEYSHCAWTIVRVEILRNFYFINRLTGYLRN

T1 sequence (P01579 24-161): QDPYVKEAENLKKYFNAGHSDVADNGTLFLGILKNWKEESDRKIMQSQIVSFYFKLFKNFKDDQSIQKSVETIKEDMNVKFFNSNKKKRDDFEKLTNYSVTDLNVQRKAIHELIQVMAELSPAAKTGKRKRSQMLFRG

B1: murine monoclonal antibody B16 against IFN-β (antibody, V domains shown)
VH: EVKLVESGGGLVQPGGSLKLSCAASGFTFTSYTMSWVRQTPEKRLEWVAYISNGGGSTYYPDTVKGRFTISRDNAKNTLYLQMSSLKSEDTAMYYCARLDWVFAYWGQGTLVTVSA
VL: DIVMTQSHKFMSTSVGDRVSITCKASQDVGTAVAWYQQKPGQSPKLLIYWASTRHTGVPDRFTGSGSGTDFTLTISNVQSEDLADYFCLQYSSFPYTFGGGTKLEIK
notes: VH of murine B16; mouse IgG heavy-chain constant region; VL of murine B16; mouse kappa light-chain constant domain (all L-chains of the panel were of the kappa isotype); Member of the hybridoma panel B1-B21; also called murB16; prototype mouse antibody; source: hybridoma B16
E. coli-HuIFN-γ
  binding result: no binding
[1]
  Kd: 3.8 nM
